Assay: Production level of IgG1 after transient expression in HEK293E cells
Settings: IgG1, protein A purified
Procedure: The VH and VL of the germlined versions of 68F2 were recloned in pUPE Heavy Chain and Light Chain expression vectors, respectively, for transient expression of full-length IgG1 antibodies. After transient expression in HEK293E cells, IgG1 antibodies were purified with protein A and quantified by measurement of OD280. Table 19 below summarizes the production levels of the germlined derivatives together with the levels of the 68F2 parental antibody. Potencies (in pM) were also measured in a 7TD1 based proliferation assay for each antibody.

B1: 129F2: germlined variant of 68F2, IgG1 (antibody, listed as Lama glama, V domains shown)
VH: EVQLQESGPGLVKPSQTLSLTCTVSGGSITSRYYAWSWIRQPPGKGLEWIGVIDYDGDTYYSPSLKSRVTISWDTSKNQFSLKLSSVTAEDTAVYYCARDPDVVTGFHYDYWGQGTMVTVSS
VL: QSALTQPPSVSGTPGQTVTISCAGANNDIGTYAYVSWYQQLPGTAPKLMIYKVTTRASGIPDRFSGSKSGNTASLTISGLQSEDEADYYCASYRNFNNAVFGGGTKLTVL
modifications: IgG1 constant regions
notes: germlined variant of 68F2, IgG1
production level / production yield: 9 µg/mL
